Square brackets hold non-standard residues; d marks the D form. Aib = CC(C)(N)C(=O)O
T1: human GLP-2 receptor (hGLP2-R) (human, UniProt O95838)
T1 sequence: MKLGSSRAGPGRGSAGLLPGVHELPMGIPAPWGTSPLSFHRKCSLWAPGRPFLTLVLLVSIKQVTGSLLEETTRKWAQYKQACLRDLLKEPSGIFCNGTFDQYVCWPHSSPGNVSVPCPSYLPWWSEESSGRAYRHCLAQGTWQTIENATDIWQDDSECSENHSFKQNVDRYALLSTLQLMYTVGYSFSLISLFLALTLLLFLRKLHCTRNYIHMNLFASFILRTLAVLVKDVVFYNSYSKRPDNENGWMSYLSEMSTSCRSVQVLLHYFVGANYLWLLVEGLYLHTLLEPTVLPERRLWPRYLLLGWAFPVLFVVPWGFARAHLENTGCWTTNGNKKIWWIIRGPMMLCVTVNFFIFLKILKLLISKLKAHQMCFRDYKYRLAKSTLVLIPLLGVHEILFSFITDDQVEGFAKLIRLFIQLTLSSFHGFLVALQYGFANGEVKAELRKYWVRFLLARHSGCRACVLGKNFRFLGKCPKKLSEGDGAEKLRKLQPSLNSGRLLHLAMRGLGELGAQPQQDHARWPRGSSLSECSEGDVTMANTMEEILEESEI

B1: Compound 8 (peptide)
peptide: H-H[Aib]EGSFTSELATILDEQAARDFIAWLILHKITD-OH
SMILES: CC[C@H](C)[C@H](NC(=O)[C@H](Cc1ccccc1)NC(=O)[C@H](CC(=O)O)NC(=O)[C@H](CCCNC(=N)N)NC(=O)[C@H](C)NC(=O)[C@H](C)NC(=O)[C@H](CCC(N)=O)NC(=O)[C@H](CCC(=O)O)NC(=O)[C@H](CC(=O)O)NC(=O)[C@H](CC(C)C)NC(=O)[C@@H](NC(=O)[C@@H](NC(=O)[C@H](C)NC(=O)[C@H](CC(C)C)NC(=O)[C@H](CCC(=O)O)NC(=O)[C@H](CO)NC(=O)[C@@H](NC(=O)[C@H](Cc1ccccc1)NC(=O)[C@H](CO)NC(=O)CNC(=O)[C@H](CCC(=O)O)NC(=O)C(C)(C)NC(=O)[C@@H](N)Cc1c[nH]cn1)[C@@H](C)O)[C@@H](C)O)[C@@H](C)CC)C(=O)N[C@@H](C)C(=O)N[C@@H](Cc1c[nH]c2ccccc12)C(=O)N[C@@H](CC(C)C)C(=O)N[C@H](C(=O)N[C@@H](CC(C)C)C(=O)N[C@@H](Cc1c[nH]cn1)C(=O)N[C@@H](CCCCN)C(=O)N[C@H](C(=O)N[C@H](C(=O)N[C@@H](CC(=O)O)C(=O)O)[C@@H](C)O)[C@@H](C)CC)[C@@H](C)CC
B2: Compound 11 (peptide)
peptide: H-H[Aib]EGTFTSELATILDGKAARDFIAWLIAHKITD-OH
SMILES: CC[C@H](C)[C@H](NC(=O)[C@H](CC(C)C)NC(=O)[C@H](Cc1c[nH]c2ccccc12)NC(=O)[C@H](C)NC(=O)[C@@H](NC(=O)[C@H](Cc1ccccc1)NC(=O)[C@H](CC(=O)O)NC(=O)[C@H](CCCNC(=N)N)NC(=O)[C@H](C)NC(=O)[C@H](C)NC(=O)[C@H](CCCCN)NC(=O)CNC(=O)[C@H](CC(=O)O)NC(=O)[C@H](CC(C)C)NC(=O)[C@@H](NC(=O)[C@@H](NC(=O)[C@H](C)NC(=O)[C@H](CC(C)C)NC(=O)[C@H](CCC(=O)O)NC(=O)[C@H](CO)NC(=O)[C@@H](NC(=O)[C@H](Cc1ccccc1)NC(=O)[C@@H](NC(=O)CNC(=O)[C@H](CCC(=O)O)NC(=O)C(C)(C)NC(=O)[C@@H](N)Cc1c[nH]cn1)[C@@H](C)O)[C@@H](C)O)[C@@H](C)O)[C@@H](C)CC)[C@@H](C)CC)C(=O)N[C@@H](C)C(=O)N[C@@H](Cc1c[nH]cn1)C(=O)N[C@@H](CCCCN)C(=O)N[C@H](C(=O)N[C@H](C(=O)N[C@@H](CC(=O)O)C(=O)O)[C@@H](C)O)[C@@H](C)CC
B3: Compound 10 (peptide)
peptide: H-H[Aib]EGTFTSELSTILDEQAARDFIAWLIAHKITD-OH
SMILES: CC[C@H](C)[C@H](NC(=O)[C@H](CC(C)C)NC(=O)[C@H](Cc1c[nH]c2ccccc12)NC(=O)[C@H](C)NC(=O)[C@@H](NC(=O)[C@H](Cc1ccccc1)NC(=O)[C@H](CC(=O)O)NC(=O)[C@H](CCCNC(=N)N)NC(=O)[C@H](C)NC(=O)[C@H](C)NC(=O)[C@H](CCC(N)=O)NC(=O)[C@H](CCC(=O)O)NC(=O)[C@H](CC(=O)O)NC(=O)[C@H](CC(C)C)NC(=O)[C@@H](NC(=O)[C@@H](NC(=O)[C@H](CO)NC(=O)[C@H](CC(C)C)NC(=O)[C@H](CCC(=O)O)NC(=O)[C@H](CO)NC(=O)[C@@H](NC(=O)[C@H](Cc1ccccc1)NC(=O)[C@@H](NC(=O)CNC(=O)[C@H](CCC(=O)O)NC(=O)C(C)(C)NC(=O)[C@@H](N)Cc1c[nH]cn1)[C@@H](C)O)[C@@H](C)O)[C@@H](C)O)[C@@H](C)CC)[C@@H](C)CC)C(=O)N[C@@H](C)C(=O)N[C@@H](Cc1c[nH]cn1)C(=O)N[C@@H](CCCCN)C(=O)N[C@H](C(=O)N[C@H](C(=O)N[C@@H](CC(=O)O)C(=O)O)[C@@H](C)O)[C@@H](C)CC
B4: Compound 7 (peptide)
peptide: H-H[Aib]EGSFTSELATILDEQAARDFIAWLIYHKITD-OH
SMILES: CC[C@H](C)[C@H](NC(=O)[C@H](Cc1ccccc1)NC(=O)[C@H](CC(=O)O)NC(=O)[C@H](CCCNC(=N)N)NC(=O)[C@H](C)NC(=O)[C@H](C)NC(=O)[C@H](CCC(N)=O)NC(=O)[C@H](CCC(=O)O)NC(=O)[C@H](CC(=O)O)NC(=O)[C@H](CC(C)C)NC(=O)[C@@H](NC(=O)[C@@H](NC(=O)[C@H](C)NC(=O)[C@H](CC(C)C)NC(=O)[C@H](CCC(=O)O)NC(=O)[C@H](CO)NC(=O)[C@@H](NC(=O)[C@H](Cc1ccccc1)NC(=O)[C@H](CO)NC(=O)CNC(=O)[C@H](CCC(=O)O)NC(=O)C(C)(C)NC(=O)[C@@H](N)Cc1c[nH]cn1)[C@@H](C)O)[C@@H](C)O)[C@@H](C)CC)C(=O)N[C@@H](C)C(=O)N[C@@H](Cc1c[nH]c2ccccc12)C(=O)N[C@@H](CC(C)C)C(=O)N[C@H](C(=O)N[C@@H](Cc1ccc(O)cc1)C(=O)N[C@@H](Cc1c[nH]cn1)C(=O)N[C@@H](CCCCN)C(=O)N[C@H](C(=O)N[C@H](C(=O)N[C@@H](CC(=O)O)C(=O)O)[C@@H](C)O)[C@@H](C)CC)[C@@H](C)CC
B5: Compound 9 (peptide)
peptide: H-H[Aib]EGTFTDELATILDEQAARDFIAWLIAHKITD-OH
SMILES: CC[C@H](C)[C@H](NC(=O)[C@H](CC(C)C)NC(=O)[C@H](Cc1c[nH]c2ccccc12)NC(=O)[C@H](C)NC(=O)[C@@H](NC(=O)[C@H](Cc1ccccc1)NC(=O)[C@H](CC(=O)O)NC(=O)[C@H](CCCNC(=N)N)NC(=O)[C@H](C)NC(=O)[C@H](C)NC(=O)[C@H](CCC(N)=O)NC(=O)[C@H](CCC(=O)O)NC(=O)[C@H](CC(=O)O)NC(=O)[C@H](CC(C)C)NC(=O)[C@@H](NC(=O)[C@@H](NC(=O)[C@H](C)NC(=O)[C@H](CC(C)C)NC(=O)[C@H](CCC(=O)O)NC(=O)[C@H](CC(=O)O)NC(=O)[C@@H](NC(=O)[C@H](Cc1ccccc1)NC(=O)[C@@H](NC(=O)CNC(=O)[C@H](CCC(=O)O)NC(=O)C(C)(C)NC(=O)[C@@H](N)Cc1c[nH]cn1)[C@@H](C)O)[C@@H](C)O)[C@@H](C)O)[C@@H](C)CC)[C@@H](C)CC)C(=O)N[C@@H](C)C(=O)N[C@@H](Cc1c[nH]cn1)C(=O)N[C@@H](CCCCN)C(=O)N[C@H](C(=O)N[C@H](C(=O)N[C@@H](CC(=O)O)C(=O)O)[C@@H](C)O)[C@@H](C)CC
B6: Compound 12 (peptide)
peptide: H-H[Aib]EGTFTSELATILDEQAARDFIAWLHAHKITD-OH
SMILES: CC[C@H](C)[C@H](NC(=O)[C@H](Cc1ccccc1)NC(=O)[C@H](CC(=O)O)NC(=O)[C@H](CCCNC(=N)N)NC(=O)[C@H](C)NC(=O)[C@H](C)NC(=O)[C@H](CCC(N)=O)NC(=O)[C@H](CCC(=O)O)NC(=O)[C@H](CC(=O)O)NC(=O)[C@H](CC(C)C)NC(=O)[C@@H](NC(=O)[C@@H](NC(=O)[C@H](C)NC(=O)[C@H](CC(C)C)NC(=O)[C@H](CCC(=O)O)NC(=O)[C@H](CO)NC(=O)[C@@H](NC(=O)[C@H](Cc1ccccc1)NC(=O)[C@@H](NC(=O)CNC(=O)[C@H](CCC(=O)O)NC(=O)C(C)(C)NC(=O)[C@@H](N)Cc1c[nH]cn1)[C@@H](C)O)[C@@H](C)O)[C@@H](C)O)[C@@H](C)CC)C(=O)N[C@@H](C)C(=O)N[C@@H](Cc1c[nH]c2ccccc12)C(=O)N[C@@H](CC(C)C)C(=O)N[C@@H](Cc1c[nH]cn1)C(=O)N[C@@H](C)C(=O)N[C@@H](Cc1c[nH]cn1)C(=O)N[C@@H](CCCCN)C(=O)N[C@H](C(=O)N[C@H](C(=O)N[C@@H](CC(=O)O)C(=O)O)[C@@H](C)O)[C@@H](C)CC
B7: Compound 6 (peptide)
peptide: H-H[Aib]EGSFTSELATILDEQAARDFIAWLIHHKITD-OH
SMILES: CC[C@H](C)[C@H](NC(=O)[C@H](Cc1ccccc1)NC(=O)[C@H](CC(=O)O)NC(=O)[C@H](CCCNC(=N)N)NC(=O)[C@H](C)NC(=O)[C@H](C)NC(=O)[C@H](CCC(N)=O)NC(=O)[C@H](CCC(=O)O)NC(=O)[C@H](CC(=O)O)NC(=O)[C@H](CC(C)C)NC(=O)[C@@H](NC(=O)[C@@H](NC(=O)[C@H](C)NC(=O)[C@H](CC(C)C)NC(=O)[C@H](CCC(=O)O)NC(=O)[C@H](CO)NC(=O)[C@@H](NC(=O)[C@H](Cc1ccccc1)NC(=O)[C@H](CO)NC(=O)CNC(=O)[C@H](CCC(=O)O)NC(=O)C(C)(C)NC(=O)[C@@H](N)Cc1c[nH]cn1)[C@@H](C)O)[C@@H](C)O)[C@@H](C)CC)C(=O)N[C@@H](C)C(=O)N[C@@H](Cc1c[nH]c2ccccc12)C(=O)N[C@@H](CC(C)C)C(=O)N[C@H](C(=O)N[C@@H](Cc1c[nH]cn1)C(=O)N[C@@H](Cc1c[nH]cn1)C(=O)N[C@@H](CCCCN)C(=O)N[C@H](C(=O)N[C@H](C(=O)N[C@@H](CC(=O)O)C(=O)O)[C@@H](C)O)[C@@H](C)CC)[C@@H](C)CC

How the values were obtained:
[1] = target: human glucagon-like peptide 1 receptor (GLP-1R) (human, UniProt P43220); assay: cell-based or functional assay
[2] = target: T1, human GLP-2 receptor (hGLP2-R); assay: cell-based or functional assay

| Binder | EC50 GLP-1 (nM); cAMP AlphaScreen [1] [nM] | EC50 GLP-2 (nM); cAMP AlphaScreen [2] [nM] |
| --- | --- | --- |
| B1 | 0.021 | 0.084 |
| B2 | 0.011 | 0.085 |
| B3 | 0.005 | 0.05 |
| B4 | 0.017 | 0.11 |
| B5 | 0.007 | 0.041 |
| B6 | 0.055 | 0.076 |
| B7 | 0.014 | 0.047 |

— US11130793B2, “GLP-1/GLP-2 dual agonists” (Zealand Pharma A/S, priority 2016, dated 2021)
